T1: JunB/FosL2 heterodimer (murine, UniProt P09450 1-344; P47930 1-326)
T1 construct: also called FosL2/JunB heterodimer
T1 sequence (looked up) 1: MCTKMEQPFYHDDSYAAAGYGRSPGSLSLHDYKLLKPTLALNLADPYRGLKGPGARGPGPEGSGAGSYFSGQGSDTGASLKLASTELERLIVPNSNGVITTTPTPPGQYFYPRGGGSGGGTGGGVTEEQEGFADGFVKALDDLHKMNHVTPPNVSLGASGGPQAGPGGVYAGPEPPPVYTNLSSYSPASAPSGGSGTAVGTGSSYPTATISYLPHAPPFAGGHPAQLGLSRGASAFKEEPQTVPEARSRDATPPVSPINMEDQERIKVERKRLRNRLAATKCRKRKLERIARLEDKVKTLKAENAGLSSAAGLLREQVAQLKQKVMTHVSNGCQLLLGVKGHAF
T1 sequence (looked up) 2: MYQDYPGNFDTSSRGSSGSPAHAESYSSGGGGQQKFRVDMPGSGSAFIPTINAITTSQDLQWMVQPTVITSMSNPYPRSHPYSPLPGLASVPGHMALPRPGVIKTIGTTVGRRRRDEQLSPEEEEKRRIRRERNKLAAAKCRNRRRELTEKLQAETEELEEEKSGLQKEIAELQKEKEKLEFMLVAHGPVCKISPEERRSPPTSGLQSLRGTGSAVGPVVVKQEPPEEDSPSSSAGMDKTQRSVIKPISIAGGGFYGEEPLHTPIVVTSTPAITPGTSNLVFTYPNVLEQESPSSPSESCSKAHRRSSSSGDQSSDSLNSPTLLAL

T2: His-tagged IRF4 (murine, UniProt Q64287 1-450)
T2 construct: not shown: His tag
T2 sequence: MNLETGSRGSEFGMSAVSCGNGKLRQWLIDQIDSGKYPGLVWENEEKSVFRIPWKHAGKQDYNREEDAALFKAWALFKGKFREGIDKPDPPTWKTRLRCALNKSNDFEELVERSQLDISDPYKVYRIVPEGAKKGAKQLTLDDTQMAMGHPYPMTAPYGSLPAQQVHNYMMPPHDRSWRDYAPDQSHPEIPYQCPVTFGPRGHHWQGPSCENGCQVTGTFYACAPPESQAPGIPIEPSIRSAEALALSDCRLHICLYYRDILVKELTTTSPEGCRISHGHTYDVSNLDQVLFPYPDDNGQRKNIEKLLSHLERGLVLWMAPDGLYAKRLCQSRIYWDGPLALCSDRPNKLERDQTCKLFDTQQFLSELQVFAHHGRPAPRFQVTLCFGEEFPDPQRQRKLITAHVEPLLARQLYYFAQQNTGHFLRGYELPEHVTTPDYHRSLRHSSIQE

T3: murine JunB (murine, UniProt P09450 1-344)
T3 construct: AP-1 family transcription factor, used as nuclear extract
T3 sequence (looked up): T1 sequence (looked up) 1

T4: BATF/JunB heterodimer (murine, UniProt O35284 1-125; P09450 1-344)
T4 construct: Formed by mixing 293T nuclear extracts, or endogenous in Th17 nuclear extracts; also called BATF/JunB complex
T4 sequence (looked up) 1: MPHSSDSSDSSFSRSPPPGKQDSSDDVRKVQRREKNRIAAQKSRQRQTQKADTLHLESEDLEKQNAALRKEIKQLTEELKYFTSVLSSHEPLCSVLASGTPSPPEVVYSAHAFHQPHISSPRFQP
T4 sequence (looked up) 2: T1 sequence (looked up) 1

B1: murine IRF-4 (other)
chain: T2 sequence
notes: Transcription factor; Expressed from CMV vectors encoding murine IRF-4 in 293T cells and used as nuclear extract, or endogenous in mouse Th17 nuclear extracts; also called Pip
B2: Flag-tagged BATF (other, murine, UniProt O35284 1-125, looked up)
chain: T4 sequence (looked up) 1
notes: not shown: Flag tag
B3: murine BATF (other, UniProt O35284 1-125, looked up)
chain: T4 sequence (looked up) 1
notes: AP-1 family transcription factor, used as nuclear extract
B4: murine IRF-8 (other)
chain: MCDRNGGRRLRQWLIEQIDSSMYPGLIWENDEKTMFRIPWKHAGKQDYNQEVDASIFKAWAVFKGKFKEGDKAEPATWKTRLRCALNKSPDFEEVTDRSQLDISEPYKVYRIVPEEEQKCKLGVAPAGCMSEVPEMECGRSEIEELIKEPSVDEYMGMTKRSPSPPEACRSQILPDWWVQQPSAGLPLVTGYAAYDTHHSAFSQMVISFYYGGKLVGQATTTCLEGCRLSLSQPGLPKLYGPDGLEPVCFPTADTIPSERQRQVTRKLFGHLERGVLLHSNRKGVFVKRLCQGRVFCSGNAVVCKGRPNKLERDEVVQVFDTNQFIRELQQFYATQSRLPDSRVVLCFGEEFPDTVPLRSKLILVQVEQLYARQLVEEAGKSCGAGSLMPALEEPQPDQAFRMFPDICTSHQRPFFRENQQITV
notes: Expressed from a CMV vector encoding murine IRF-8 in 293T cells and used as nuclear extract; also called ICSBP
B5: murine IRF-3 (other, UniProt P70671 1-419, looked up)
chain: METPKPRILPWLVSQLDLGQLEGVAWLDESRTRFRIPWKHGLRQDAQMADFGIFQAWAEASGAYTPGKDKPDVSTWKRNFRSALNRKEVLRLAADNSKDPYDPHKVYEFVTPGARDFVHLGASPDTNGKSSLPHSQENLPKLFDGLILGPLKDEGSSDLAIVSDPSQQLPSPNVNNFLNPAPQENPLKQLLAEEQWEFEVTAFYRGRQVFQQTLFCPGGLRLVGSTADMTLPWQPVTLPDPEGFLTDKLVKEYVGQVLKGLGNGLALWQAGQCLWAQRLGHSHAFWALGEELLPDSGRGPDGEVHKDKDGAVFDLRPFVADLIAFMEGSGHSPRYTLWFCMGEMWPQDQPWVKRLVMVKVVPTCLKELLEMAREGGASSLKTVDLHISNSQPISLTSDQYKAYLQDLVEDMDFQATGNI
notes: Used as 293T nuclear extract

Tests used:
[1] = molecular target: T1, JunB/FosL2 heterodimer; experiment: EMSA on AICE DNA probes, 293T nuclear extracts
Excerpt: (§1) (a-d) EMSAs using the Bcl11b probe and 293T nuclear extracts as a source of indicated proteins (a) c-Jun, BATF, IRF-4, (b) FosL2, JunB, IRF-4, (c) JunB, BATF, IRF-8 or (d) JunB, BATF, IRF-3 (e) EMSA using an ISRE containing probe and IRF-3 or IRF-4. Complexes were supershifted with indicated antibodies. Red and green arrows mark the ternary and quaternary protein-DNA complexes, respectively as in FIG. 1d. Data are representative of at least two independent experiments. (f-h) Th0 cells and Th2 cells differentiated in vitro (42 hours) and LPS-activated dendritic cells (6 hours) were subjected to chromatin crosslinking and immunoprecipitation with antibodies directed against IRF-4. Immunoprecipitated chromatin was deep sequenced and analyzed as in FIG. 3a.
(§2) Nuclear extracts were prepared from 293T cells (2×107), 48 hours after their transfection or from Th17 cells (8×107), 42 hours after their activation and differentiation. […]

[2] = molecular target: B3; experiment: cell-based or functional assay
[3] = molecular target: T5, c-Jun/BATF heterodimer (murine, UniProt P05627 1-334; O35284 1-125); experiment: EMSA, 293T nuclear extracts, AICE probes
T5 construct: also called BATF/cJun
T5 sequence (P05627 whole entry, one chain of several): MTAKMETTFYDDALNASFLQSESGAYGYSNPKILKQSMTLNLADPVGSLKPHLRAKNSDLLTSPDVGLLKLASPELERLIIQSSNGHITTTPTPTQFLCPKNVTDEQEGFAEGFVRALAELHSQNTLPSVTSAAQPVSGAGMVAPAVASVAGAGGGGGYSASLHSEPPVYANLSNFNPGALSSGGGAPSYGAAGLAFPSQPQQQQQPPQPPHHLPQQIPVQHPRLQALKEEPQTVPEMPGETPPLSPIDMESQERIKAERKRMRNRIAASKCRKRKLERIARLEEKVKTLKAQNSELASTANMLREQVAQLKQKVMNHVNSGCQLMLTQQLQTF
Excerpt: as §1, §2

[4] = molecular target: T2, His-tagged IRF4; experiment: EMSA, 293T nuclear extracts, CTLA-4 and Bcl11b AICE DNA probes (DNA-dependent ternary complex)
Description: Positions of various protein/DNA complexes are indicated. Nuclear extracts were incubated with either the wild type Bcl11b or CTLA-4 probes or their indicated mutant counterparts in which either the IRF or AP-1 site or both were altered.
(§3) Nuclear extracts were prepared from 293T cells (2×107), 48 hours after their transfection or from Th17 cells (8×107), 42 hours after their activation and differentiation. Cells were incubated for 10 min in 1 ml of hypotonic buffer (10 mM Hepes pH7.6, 10 mM KCl, 0.1 mM EGTA, 1.5 mM MgCl, 1 mM DTT, 0.5 mM PMSF and the complete protease inhibitor mixture (Roche, #11697498001) and then lysed with the addition of 0.01% Triton-x-100. After centrifugation at maximum speed in an Eppendorf microfuge for 15 seconds the nuclear pellet was resuspended in 80 μl of the following buffer (420 mM NaCl, 20 mM Hepes pH7.9, 0.2 mM EDTA, 25% Glycerol, 1 mM DTT, 0.5 mM PMSF with complete protease inhibitor mixture). Nuclear proteins were extracted with intermittent vortexing and incubation for 15 minutes at […]. In-vitro binding assays were performed using reagents from the light-shift chemiluminescent EMSA kit (Thermo scientific) according to the manufacturer's protocol, with the exception of using FAMlabeled probes (Table 2, below). Protein-DNA complexes were resolved using 6%-TBE Gels (Invitrogen) at 100V and imaged with a Typhoon Trio Imager (Amersham Biosciences). […]

[5] = molecular target: B1; experiment: EMSA, Th17 nuclear extracts, Bcl11b and CTLA-4 probes
Description: as §3

[6] = molecular target: T3, murine JunB; experiment: EMSA supershift, Th17 nuclear extracts, IRF-site-mutated AICE probes
[7] = molecular target: T4, BATF/JunB heterodimer; experiment: EMSA, 293T nuclear extracts, AICE probes
Excerpt: as §1, §2

[8] = molecular target: T4, BATF/JunB heterodimer; experiment: EMSA on Bcl11b AICE DNA probe, 293T nuclear extracts
Excerpt: as §1, §2

With B1 the binding result [1] was “no binding”, the “CTLA-4 levels (intracellular, flow cytometry) in T cells transduced with IRF4 and/or BATF retroviruses” value [2] was 3 fold and the “ICOS levels (surface expression, flow cytometry) in Th0 cells transduced with IRF4 and/or BATF retroviruses” value [2] was about 6 fold. The “frequency of IL-17A producing cells by intracellular flow cytometry” value [2] was 2 fold and the binding result [3] was “binds”.

B2: binds [4].

B3: binds [5]; binds [6].

B4: binds [7].

B5: no binding [8].

From patent US20140378537A1 (Genentech, published 2014)
